Residue numbers refer to the chain shown, from its start. Names may count otherwise.

Experiment [1] deals with T1, human FcRn (Example 10) (human, UniProt P55899 24-297; P61769 21-119, limits assumed).
T1 construct: Construct not described; Beta-2-microglobulin is not mentioned; also called recombinant FcRn proteins
The experiment can be described thus: SPR, FcRn immobilized on CM5, Steady State.

The target in experiment [2] is T2, Human NKp46 recombinant proteins (human, UniProt O76036 22-258).
T2 construct: also called recombinant human NKp46 proteins
The experiment can be described thus: SPR, bispecific captured on Protein-A chip, human NKp46 injected, 1:1 kinetic model. On the procedure:
SPR measurements were performed on a Biacore T100 apparatus (Biacore GE Healthcare) at 25° C. In all Biacore experiments HBS-EP+(Biacore GE Healthcare) and NaOH 10 mM served as running buffer and regeneration buffer respectively. Sensorgrams were analyzed with Biacore T100 Evaluation software. Protein-A was purchase from (GE Healthcare). Human NKp46 recombinant proteins were cloned, produced and purified at Innate Pharma.
Protein-A proteins were immobilized covalently to carboxyl groups in the dextran layer on a Sensor Chip CM5. The chip surface was activated with EDC/NHS (N-ethyl-N′-(3-dimethylaminopropyl) carbodiimidehydrochloride and N-hydroxysuccinimide (Biacore GE Healthcare)). Protein-A was diluted to 10 μg/ml in coupling buffer (10 mM acetate, pH 5.6) and injected until the appropriate immobilization level was reached (i.e. 2000 RU). Deactivation of the remaining activated groups was performed using 100 mM ethanolamine pH 8 (Biacore GE Healthcare).
Monovalent affinity study was done following a regular Capture-Kinetic protocol recommended by the manufacturer (Biacore GE Healthcare kinetic wizard). Seven serial dilutions of human NKp46 recombinant proteins, ranging from 6.25 to 400 nM were sequentially injected over the captured Bi-Specific antibodies and allowed to dissociate for 10 min before regeneration. The entire sensorgram sets were fitted using the 1:1 kinetic binding model.

Experiment [3] deals with T3, NKp46 mutant 19 (human, UniProt O76036 22-304).
T3 construct: Expressed in transfected HEK293T cells
T3 chain: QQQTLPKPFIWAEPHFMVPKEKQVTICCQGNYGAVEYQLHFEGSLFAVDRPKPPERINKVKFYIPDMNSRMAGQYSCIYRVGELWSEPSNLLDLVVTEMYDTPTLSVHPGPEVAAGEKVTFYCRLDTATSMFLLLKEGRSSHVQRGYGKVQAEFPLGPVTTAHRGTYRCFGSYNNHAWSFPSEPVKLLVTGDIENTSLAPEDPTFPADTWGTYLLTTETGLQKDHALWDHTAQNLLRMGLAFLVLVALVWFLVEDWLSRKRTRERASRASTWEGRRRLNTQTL
The experiment can be described thus: flow cytometry on HEK293T cells transfected with NKp46 mutant 19 (I135A, S136A), antibody titrated 0.001-1 ug/ml.

In experiment [4] the target is T4, NKp46 mutant Supp8 (human, UniProt O76036 22-304).
T4 construct: Expressed in transfected HEK293T cells; also called supplementary mutant Supp8
T4 chain: T3 chain with P111A, E112A, A114I, A115S
As to the kind of experiment: flow cytometry on HEK293T cells transfected with NKp46 mutant Supp8 (P132A, E133A; printed 'Mutant S8'), antibody titrated 0.001-1 ug/ml.

T1 sequence (P55899 24-297 limits assumed, form in doubt, chain 1 of 2): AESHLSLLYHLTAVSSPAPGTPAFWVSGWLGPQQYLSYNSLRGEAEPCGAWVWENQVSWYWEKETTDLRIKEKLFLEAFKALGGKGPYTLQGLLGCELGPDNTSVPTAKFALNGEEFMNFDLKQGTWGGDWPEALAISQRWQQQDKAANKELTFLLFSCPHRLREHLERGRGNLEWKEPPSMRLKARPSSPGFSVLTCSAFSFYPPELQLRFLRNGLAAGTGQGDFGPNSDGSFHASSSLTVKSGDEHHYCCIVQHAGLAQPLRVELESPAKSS
T1 sequence (P61769 21-119 limits assumed, form in doubt, chain 2 of 2): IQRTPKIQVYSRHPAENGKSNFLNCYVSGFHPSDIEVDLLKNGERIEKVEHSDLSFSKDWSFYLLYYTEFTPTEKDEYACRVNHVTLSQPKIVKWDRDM

B1: CD19-F4-NKp46-3 (bispecific antibody)
chain: DIQLTQSPASLAVSLGQRATISCKASQSVDYDGDSYLNWYQQIPGQPPKLLIYDASNLVSGIPPRFSGSGSGTDFTLNIHPVEKVDAATYHCQQSTEDPWTFGGGTKLEIKGGGGSGGGGSGGGGSQVQLQQSGAELVRPGSSVKISCKASGYAFSSYWMNWVKQRPGQGLEWIGQIWPGDGDTNYNGKFKGKATLTADESSSTAYMQLSSLASEDSAVYFCARRETTTVGRYYYAMDYWGQGTTVTVSSGGGSSAPELLGGPSVFLFPPKPKDTLMISRTPEVTCVVVDVSHEDPEVKFNWYVDGVEVHNAKTKPREEQYSSTYRVVSVLTVLHQDWLNGKEYKCKVSNKALPAPIEKTISKAKGQPREPQVYTLPPSREEMTKNQVSLTCLVKGFYPSDIAVEWESNGQPENNYKTTPPVLDSDGSFFLYSKLTVDKSRWQQGNVFSCSVMHEALHNHYTQKSLSLSPGGGGGSGGGGSGGGGSGQPREPQVYTLPPSREEMTKNQVSLTCLVKGFYPSDIAVEWESNGQPENNYKTTPPVLDSDGSFFLYSKLTVDKSRWQQGNVFSCSVMHEALHNHYTQKSLSLSPGSTGSEVQLQQSGPELVKPGASVKISCKTSGYTFTEYTMHWVKQSHGKSLEWIGGISPNIGGTSYNQKFKGKATLTVDKSSSTAYMELRSLTSEDSAVYYCARRGGSFDYWGQGTTLTVSSVEGGSGGSGGSGGSGGVDDIVMTQSPATLSVTPGDRVSLSCRASQSISDYLHWYQQKSHESPRLLIKYASQSISGIPSRFSGSGSGSDFTLSINSVEPEDVGVYYCQNGHSFPLTFGAGTKLELK
notes: Single chain with tandem CH3 and N297S
The molecule B1 had a Kd in experiment [1] of 712 nM. For the same molecule, in experiment [2], the Kd came to 30 nM, the koff was 0.011 s⁻¹ and the on-rate (kon) is 368000 M⁻¹ s⁻¹.

B2: NKp46-9 (antibody, V domains shown)
VH: DVQLQESGPGLVKPSQSLSLTCTVTGYSITSDYAWNWIRQFPGNKLEWMGYITYSGSTNYNPSLKSRISITRDTSKNQFFLQLNSVTTEDTATYYCARCWDYALYAMDCWGQGTSVTVSS
VL: DIQMTQSPASLSASVGETVTITCRTSENIYSYLAWCQQKQGKSPQLLVYNAKTLAEGVPSRFSGSGSGTHFSLKINSLQPEDFGIYYCQHHYDTPLTFGAGTKLELK
notes: not in the list MOLECULES as an antibody; also called antibody NKp46-9; monoclonal antibody NKp46-9
As to B2, the binding result in experiment [3] and in experiment [4] was “binds” each time.

B3: CD19-F1-NKp46-2 (bispecific antibody)
chain: DIQLTQSPASLAVSLGQRATISCKASQSVDYDGDSYLNWYQQIPGQPPKLLIYDASNLVSGIPPRFSGSGSGTDFTLNIHPVEKVDAATYHCQQSTEDPWTFGGGTKLEIKGGGGSGGGGSGGGGSQVQLQQSGAELVRPGSSVKISCKASGYAFSSYWMNWVKQRPGQGLEWIGQIWPGDGDTNYNGKFKGKATLTADESSSTAYMQLSSLASEDSAVYFCARRETTTVGRYYYAMDYWGQGTTVTVSSGGGSSAPELLGGPSVFLFPPKPKDTLMISRTPEVTCVVVDVSHEDPEVKFNWYVDGVEVHNAKTKPREEQYNSTYRVVSVLTVLHQDWLNGKEYKCKVSNKALPAPIEKTISKAKGQPREPQVYTKPPSREEMTKNQVSLSCLVKGFYPSDIAVEWESNGQPENNYKTTVPVLDSDGSFRLASYLTVDKSRWQQGNVFSCSVMHEALHNHYTQKSLSLSPGSTGSEVQLQESGPGLVKPSQSLSLTCTVTGYSITSDYAWNWIRQFPGNKLEWMGYITYSGSTSYNPSLESRISITRDTSTNQFFLQLNSVTTEDTATYYCARGGYYGSSWGVFAYWGQGTLVTVSAVEGGSGGSGGSGGSGGVDDIQMTQSPASLSASVGETVTITCRVSENIYSYLAWYQQKQGKSPQLLVYNAKTLAEGVPSRFSGSGSGTQFSLKINSLQPEDFGSYYCQHHYGTPWTFGGGTKLEIK
notes: Single chain F1 format; also called bi-specific antibody NKp46-2 (F1)
For the molecule B3, in experiment [2], the Kd was found to be 8.93 nM, the koff was 0.00145 s⁻¹ and the kon turned out to be 162000 M⁻¹ s⁻¹.

B4: NKp46-1 (antibody, V domains shown)
VH: QVQLQQSGPELVKPGASVKMSCKASGYTFTDYVINWGKQRSGQGLEWIGEIYPGSGTNYYNEKFKAKATLTADKSSNIAYMQLSSLTSEDSAVYFCARRGRYGLYAMDYWGQGTSVTVSS
VL: DIQMTQTTSSLSASLGDRVTISCRASQDISNYLNWYQQKPDGTVKLLIYYTSRLHSGVPSRFSGSGSGTDYSLTINNLEQEDIATYFCQQGNTRPWTFGGGTKLEIK
notes: also called Antibody NKp46-1; parental human IgG1 chimeric antibody NKp46-1
In the case of B4, the binding result in experiment [3] and in experiment [4] was “binds” in each case.

B5: CD19-F9A-NKp46-3 (bispecific antibody, human IgG1, kappa)
chain 1: not shown
chain 2: not shown
chain 3: DIVMTQSPATLSVTPGDRVSLSCRASQSISDYLHWYQQKSHESPRLLIKYASQSISGIPSRFSGSGSGSDFTLSINSVEPEDVGVYYCQNGHSFPLTFGAGTKLELKASTKGPSVFPLAPSSKSTSGGTAALGCLVKDYFPEPVTVSWNSGALTSGVHTFPAVLQSSGLYSLSSVVTVPSSSLGTQTYICNVNHKPSNTKVDKRVEPKSCDKTH
notes: Heterotrimer with monomeric Fc (tandem CH3, N297S) and wild-type hinge cysteines
The molecule B5 gave a dissociation constant Kd in experiment [1] of 858 nM. In addition, in experiment [2], the Kd stood at 32 nM, the koff came to 0.00669 s⁻¹ and the kon was 207000 M⁻¹ s⁻¹.

B6: CD19-F1-NKp46-3 (bispecific antibody)
chain: DIQLTQSPASLAVSLGQRATISCKASQSVDYDGDSYLNWYQQIPGQPPKLLIYDASNLVSGIPPRFSGSGSGTDFTLNIHPVEKVDAATYHCQQSTEDPWTFGGGTKLEIKGGGGSGGGGSGGGGSQVQLQQSGAELVRPGSSVKISCKASGYAFSSYWMNWVKQRPGQGLEWIGQIWPGDGDTNYNGKFKGKATLTADESSSTAYMQLSSLASEDSAVYFCARRETTTVGRYYYAMDYWGQGTTVTVSSGGGSSAPELLGGPSVFLFPPKPKDTLMISRTPEVTCVVVDVSHEDPEVKFNWYVDGVEVHNAKTKPREEQYNSTYRVVSVLTVLHQDWLNGKEYKCKVSNKALPAPIEKTISKAKGQPREPQVYTKPPSREEMTKNQVSLSCLVKGFYPSDIAVEWESNGQPENNYKTTVPVLDSDGSFRLASYLTVDKSRWQQGNVFSCSVMHEALHNHYTQKSLSLSPGSTGSEVQLQQSGPELVKPGASVKISCKTSGYTFTEYTMHWVKQSHGKSLEWIGGISPNIGGTSYNQKFKGKATLTVDKSSSTAYMELRSLTSEDSAVYYCARRGGSFDYWGQGTTLTVSSVEGGSGGSGGSGGSGGVDDIVMTQSPATLSVTPGDRVSLSCRASQSISDYLHWYQQKSHESPRLLIKYASQSISGIPSRFSGSGSGSDFTLSINSVEPEDVGVYYCQNGHSFPLTFGAGTKLELK
notes: Single chain F1 format; also called bi-specific antibody NKp46-3 (F1)
B6: in experiment [2], the Kd was 9.14 nM, the off-rate constant (koff) came to 0.000644 s⁻¹ and the on-rate (kon) amounted to 70500 M⁻¹ s⁻¹.

B7: CD19-F1-NKp46-4 (bispecific antibody)
chain: DIQLTQSPASLAVSLGQRATISCKASQSVDYDGDSYLNWYQQIPGQPPKLLIYDASNLVSGIPPRFSGSGSGTDFTLNIHPVEKVDAATYHCQQSTEDPWTFGGGTKLEIKGGGGSGGGGSGGGGSQVQLQQSGAELVRPGSSVKISCKASGYAFSSYWMNWVKQRPGQGLEWIGQIWPGDGDTNYNGKFKGKATLTADESSSTAYMQLSSLASEDSAVYFCARRETTTVGRYYYAMDYWGQGTTVTVSSGGGSSAPELLGGPSVFLFPPKPKDTLMISRTPEVTCVVVDVSHEDPEVKFNWYVDGVEVHNAKTKPREEQYNSTYRVVSVLTVLHQDWLNGKEYKCKVSNKALPAPIEKTISKAKGQPREPQVYTKPPSREEMTKNQVSLSCLVKGFYPSDIAVEWESNGQPENNYKTTVPVLDSDGSFRLASYLTVDKSRWQQGNVFSCSVMHEALHNHYTQKSLSLSPGSTGSQVQLQQSAVELARPGASVKMSCKASGYTFTSFTMHWVKQRPGQGLEWIGYINPSSGYTEYNQKFKDKTTLTADKSSSTAYMQLDSLTSDDSAVYYCVRGSSRGFDYWGQGTLVTVSAVEGGSGGSGGSGGSGGVDDIQMIQSPASLSVSVGETVTITCRASENIYSNLAWFQQKQGKSPQLLVYAATNLADGVPSRFSGSGSGTQYSLKINSLQSEDFGIYYCQHFWGTPRTFGGGTKLEIK
notes: Single chain F1 format
Take B7: in experiment [2], the dissociation constant Kd was found to be 4.85 nM, the koff was 0.000653 s⁻¹ and the kon was determined as 135000 M⁻¹ s⁻¹.

The values are drawn from patent US20240141042A1 (INNATE PHARMA, published 2024).
